Where a SMILES comes first, the peptide text is derived from it. [ ]: non-standard residue; d: D form. dPhe(4-Cl) = N[C@H](Cc1ccc(Cl)cc1)C(=O)O; d2Nal = N[C@H](Cc1ccc2ccccc2c1)C(=O)O; dCit = NC(=O)NCCC[C@@H](N)C(=O)O; d3Pal = N[C@H](Cc1cccnc1)C(=O)O
Tested on: C57BL6/J (B6) dams and their female offspring
Assay: Prenatal treatment of pregnant dams: phenotype, estrous cycle, ovarian histology and fertility of female offspring
Assay type: in vivo, mouse
Description: FIGS. 2A-2E-3. Prenatal AMH treatment disrupts estrous cyclicity, ovarian morphology and fertility in adult offspring. (FIG. 2A) Schematic of experimental design whereby pregnant dams were subjected to different treatments by intraperitoneal (i.p.) injections during the late gestational period (embryonic days (E) 16.5-E18.5). Pregnant dams were treated with i.p. injections of four different treatments, which are designated as the following: Control, PBS, 0.01M, pH 7.4 (n=14); Prenatal anti-Müillerian hormone-treated (PAMH), PBS containing human recombinant AMH (n=19); Prenatal AMH+Cetrorelix (PAMH+GnRH antag), PBS containing both human recombinant AMH and cetrorelix acetate (n=10); Cetrorelix-treated (GnRH antag), PBS containing cetrorelix acetate (n=4). (FIG. 2B) Quantitative analysis of ovarian cyclicity in adult (P60-P90) offspring mice (control, n=14; PAMH, n=19; PAMH+GnRH antag, n=10; GnRH antag, n=4). Vaginal cytology was assessed for 16 days. […] Bars from left to right in each group: Control, PAMH, PAMH+GnRH antag, GnRH antag. (FIGS. 2C-1, 2C-2, 2C-3) Representation of estrous cyclicity in one female mouse of each of the four treatments during 16 consecutive days (4-cycles). (FIGS. 2D-1, 2D-2, 2D-3) Quantitative analysis of corpora lutea, late antral follicles and atretic follicles in the ovaries of Control (n=7, age: P90) and PAMH mice (n=8, age: P90). Data are represented as mean±s.e.m (two-tailed Student's t-test; corpora lutea, t(13)=4.879, **P<0.001; late antral follicles, t(13)=4.637, **P<0.001; atretic follicles, t(13)=0.226, P=0.82). Data were combined from two independent experiments. In FIGS. 2D-1, 2D-2 and 2D-3: left bar: Control; right bar: PAMH.). (FIGS. 2E-1, 2E-2, 2E-3) Fertility tests of the adult offspring mice (P90). Bars from left to right in each FIGS. 2E-1, 2E-2 and 2E-3: Control, PAMH, PAMH+GnRH antag, GnRH antag Matings were performed for 90 days. Control females were paired with control males (n=7), PAMH females were paired with PAMH males (n=7), PAMH+GnRH antag females were paired with PAMH+GnRH antag males (n=6), and GnRH antag females were paired with GnRH antag males (n=4). […] Data are represented as mean±s.e.m. One-way ANOVA and Tukey's multiple comparison post hoc test: time to first litter, F(3,20)=14.73, ***P<0.0001; fertility index, F(3,20)=7.069, *P<0.05, **P<0.005; number of pups/litter, F(3,20)=30.71, ***P<0.0001.
FIGS. 8A-8D. Prenatal AMH treatment disrupts puberty onset and estrous cyclicity cyclicity but not body mass of the offspring. (FIGS. 8A, 8B, 8C, 8D) Parameters of pubertal onset and estrous cyclicity in female control (n=14), PAMH (n=17-19), PAMH+GnRH antag (n=10), and GnRH antag (n=4) animals. (FIG. 8A) Age of vaginal opening (VO) and (FIG. 8B) Age of first estrus were compared using a one-way ANOVA and Tukey's multiple comparison post hoc analyses, respectively: F (3, 43)=48.37, *** P<0.0001; F (3, 41)=112.6, *** P<0.0001. Bars from left to right in each FIGS. 8A, 8B: Control, PAMH, PAMH+GnRH antag, GnRH antag (FIG. 8C) Percentage (%) of completed estrous cycles over 16 days (4 cycles) was analyzed using a non-parametric Kruskal-Wallis test followed by a Dunn's multiple comparison post-hoc analysis: Kruskal-Wallis statistic=35.55, *P<0.05, **P<0.005, ***P<0.0001. Bars from left to right in each FIG. 8C: Control, PAMH, PAMH+GnRH antag, GnRH antag (FIG. 8D) Body mass (gr) was measured in female offspring at each post-natal age (P) until P60 and compared using a one-way ANOVA and Tukey's multiple comparison post hoc analyses for each age and treatment: P30, F (3, 43)=1.338, P=0.2747; P35, F (3, 43)=0.4268, P=0.7348; P40, F (3, 43)=0.4171, P=0.7416; P50, F (3, 27)=2.158, P=0.1162; P60, F (3, 27)=5.45, P=0.0046; * P<0.05, **, P<0.005. Asterisks represent significant differences (mean±s.e.m): *P<0.05, **P<0.005, ***, P<0.0001. Bars from left to right in FIG. 8D: Control, PAMH, PAMH+GnRH antag, GnRH antag. […]

[1] = dams i.p. AMH 0.12 mg/Kg/d + cetrorelix acetate 0.5 mg/Kg E16.5-E18.5, female offspring
[2] = dams i.p. 0.12 mg/Kg/d E16.5-E18.5, female offspring vs control

CC(=O)N[C@H](Cc1ccc2ccccc2c1)C(=O)N[C@H](Cc1ccc(Cl)cc1)C(=O)N[C@H](Cc1cccnc1)C(=O)N[C@@H](CO)C(=O)N[C@@H](Cc1ccc(O)cc1)C(=O)N[C@H](CCCNC(N)=O)C(=O)N[C@@H](CC(C)C)C(=O)N[C@@H](CCCNC(=N)N)C(=O)N1CCC[C@H]1C(=O)N[C@H](C)C(N)=O [Cetrorelix acetate, Ac-D-2Nal-D-Phe(4-Cl)-D-3Pal-Ser-Tyr-D-Cit-Leu-Arg-Pro-D-Ala-NH2] (Ac-[d2Nal][dPhe(4-Cl)][d3Pal]SY[dCit]LRP[dA]-NH2)
estrous cyclicity and fertility (GnRH antagonist alone, dams i.p. 0.5 mg/Kg/d E16.5-E18.5, offspring): no effect | longer ano-genital distance phenotype of PAMH offspring [1]: completely rescued | oligo-anovulation and subfertility (ovulatory and fertility defects) of PAMH offspring [1]: totally prevented | oligo-anovulation and subfertility (ovulatory and fertility defects) of PAMH offspring (dams i.p. AMH 0.12 mg/Kg/d + cetrorelix acetate 0.5 mg/Kg E16.5-E18.5, female offspring, listed as GnRH antagonist): prevented the appearance of the ovulatory and fertility defects

B1: proAMH: AMH proprotein (Origene Technologies, Cat # TP308397), injected prenatally 0.12 mg/Kg/d (protein, UniProt P03971 25-560, looked up)
pro-form: LRAEEPAVGTSGLIFREDLDWPPGSPQEPLCLVALGGDSNGSSSPLRVVGALSAYEQAFLGAVQRARWGPRDLATFGVCNTGDRQAALPSLRRLGAWLRDPGGQRLVVLHLEEVTWEPTPSLRFQEPPPGGAGPPELALLVLYPGPGPEVTVTRAGLPGAQSLCPSRDTRYLVLAVDRPAGAWRGSGLALTLQPRGEDSRLSTARLQALLFGDDHRCFTRMTPALLLLPRSEPAPLPAHGQLDTVPFPPPRPSAELEESPPSADPFLETLTRLVRALRVPPARASAPRLALDPDALAGFPQGLVNLSDPAALERLLDGEEPLLLLLRPTAATTGDPAPLHDPTSAPWATALARRVAAELQAAAAELRSLPGLPPATAPLLARLLALCPGGPGGLGDPLRALLLLKALQGLRVEWRGRDPRGPGRAQRSAGATAADGPCALRELSVDLRAERSVLIPETYQANNCQGVCGWPQSDRNPRYGNHVVLLLKMQVRGAALARPPCCVPTAYAGKLLISLSEERISAHHVPNMVATECGCR
modifications: pro-form
notes: AMH proprotein (Origene Technologies, Cat # TP308397), injected prenatally 0.12 mg/Kg/d
estrous cyclicity (dams i.p. 0.12 mg/Kg/d E16.5-E18.5, adult female offspring vs control): disrupted estrous cyclicity | ano-genital distance (dams i.p. 0.12 mg/Kg/d E16.5-E18.5, female offspring P30-P60 vs control): significantly longer ano-genital distance | body weight of offspring [2]: no difference in body weight | puberty onset (first estrus) [2]: delayed puberty onset | vaginal opening [2]: delayed vaginal opening

From patent US12208130B2, “Treatment of women affected with polycystic ovary syndrome” (INSTITUT NATIONAL DE LA SANTE ET DE LA RECHERCHE MEDICALE …, priority 2017, dated 2025)
